Residue numbers refer to the chain shown, from its start.
T1: human BCMA on cells (endogenous, on multiple myeloma and lymphoma cell lines) (human, UniProt Q02223 1-184)
T1 sequence: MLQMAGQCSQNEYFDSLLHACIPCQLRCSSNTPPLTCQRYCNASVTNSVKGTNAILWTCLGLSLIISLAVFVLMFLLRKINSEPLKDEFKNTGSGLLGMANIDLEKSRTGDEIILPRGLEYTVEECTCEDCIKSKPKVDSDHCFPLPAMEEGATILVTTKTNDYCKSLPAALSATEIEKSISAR

T2: human BCMA-MFC (extracellular domain of human BCMA with C-terminal mFc tag) (human)
T2 construct: also called hBCMA.mFc
T2 chain: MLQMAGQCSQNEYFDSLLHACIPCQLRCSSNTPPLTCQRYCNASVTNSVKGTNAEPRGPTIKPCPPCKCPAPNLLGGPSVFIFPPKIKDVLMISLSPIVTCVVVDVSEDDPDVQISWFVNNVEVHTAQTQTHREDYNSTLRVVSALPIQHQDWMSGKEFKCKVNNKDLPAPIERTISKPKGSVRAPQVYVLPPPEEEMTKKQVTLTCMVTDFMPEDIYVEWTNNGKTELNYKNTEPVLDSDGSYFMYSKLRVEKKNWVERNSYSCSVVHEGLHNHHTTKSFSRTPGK

T3: human BCMA-MMH (extracellular domain of human BCMA with C-terminal myc-myc-hexahistidine tag) (human)
T3 construct: Monomeric antigen; the entry holds the ectodomain and the myc-myc-His tag; also called hBCMA.mmh; hBCMA.mmH
T3 chain: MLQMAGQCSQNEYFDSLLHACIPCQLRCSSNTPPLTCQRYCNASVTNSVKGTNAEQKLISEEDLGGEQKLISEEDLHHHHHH

T4: mouse BCMA-MFC (BCMA with C-terminal mFc tag) (mouse)
T4 construct: Tested at 30 nM only
T4 chain: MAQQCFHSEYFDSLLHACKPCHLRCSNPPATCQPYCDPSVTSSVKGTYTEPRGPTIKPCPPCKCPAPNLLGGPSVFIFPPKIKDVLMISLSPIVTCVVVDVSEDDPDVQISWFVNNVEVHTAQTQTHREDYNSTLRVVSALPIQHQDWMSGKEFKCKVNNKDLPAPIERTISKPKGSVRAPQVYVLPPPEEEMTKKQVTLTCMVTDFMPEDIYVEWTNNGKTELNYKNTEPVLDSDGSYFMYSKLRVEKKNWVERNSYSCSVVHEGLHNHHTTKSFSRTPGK

B1: REGN5458 (bsAb25441D), anti-BCMA x anti-CD3 bispecific antibody (bispecific antibody, V domains shown)
VH 1: EVQLVESGGGLVQPGGSLRLSCAASGFTFSNFWMTWVRQAPGKGLEWVANMNQDGSEKYYVDSVKGRFTISRDNAKSSLYLQMNSLRAEDTAVYYCARDREYCISTSCYDDFDYWGQGTLVTVSS
VH 2: EVQLVESGGGLVQPGRSLRLSCAASGFTFDDYSMHWVRQAPGKGLEWVSGISWNSGSKGYADSVKGRFTISRDNAKNSLYLQMNSLRAEDTALYYCAKYGSGYGKFYHYGLDVWGQGTTVTVSS
VL: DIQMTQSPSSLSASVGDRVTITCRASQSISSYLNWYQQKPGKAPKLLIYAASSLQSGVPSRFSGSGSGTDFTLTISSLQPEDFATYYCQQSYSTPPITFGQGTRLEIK
notes: Two different heavy chains paired with a common light chain; human Fc (captured by anti-human Fc in SPR); also called bsAb25441D9; mAb25441D
B2: REGN5459 (bsAb25442D), anti-BCMA x anti-CD3 bispecific antibody (bispecific antibody, V domains shown)
VH 1: B1 VH 1
VH 2: B1 VH 2 with K58I, H108Y, L111M
VL: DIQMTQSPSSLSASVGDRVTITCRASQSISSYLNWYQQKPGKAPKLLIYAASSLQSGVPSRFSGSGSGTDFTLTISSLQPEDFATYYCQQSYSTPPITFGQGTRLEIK
notes: also called mAb25442D; mAb25442D-A647

Assays:
[1] = molecular target: T5, human CD3 on Jurkat cells and primary human CD8+ T cells (human, UniProt P07766 23-207; P04234 22-171; P20963 22-164; P09693 23-182); assay: flow cytometry on Jurkat cells (human CD3), median EC50, n=5
T5 construct: Endogenous CD3 complex on cells; also called hCD3; Jurkat-hCD3
Protocol: Flow cytometric analysis was utilized to determine binding of BCMA×CD3 bispecific antibodies to human and cynomolgus CD3 (Jurkat cells, mfCD3 engineered Jurkat cells, primary human CD8+ and cynomolgus CD8+ T cells). Briefly, 1e05 cells/well were incubated in the presence of FACS wash with block (PBS+1% filtered FBS+5% mouse serum) with a serial dilution of BCMA×CD3 and control antibodies for 30 minutes on ice. After incubation, the cells were washed twice with cold FACS wash (PBS+1% filtered FBS) and bound antibody was detected by incubating with Alexa647-conjugated anti-human secondary antibody on ice for an additional 30 minutes. Wells containing no antibody or secondary only were used as a control. For the detection of monkey and human T cells, a cocktail of human and cynomolgus cross-reactive antibodies to CD4, CD8 and CD16 was added to the anti-human secondary. After incubation, cells were washed, re-suspended in 200 μL cold PBS containing 1% filtered FBS and analyzed by flow cytometry on a BD FACS Canto II. Cells were gated by FSC-H by FSC-A to select singlet events, followed by side and forward scatters to select for live events. For monkey T cells, additional gating on CD8+/CD16− cells was performed.
EC50 values for FACS binding were calculated using 4-parameter non-linear regression analysis in Prism software.

[2] = molecular target: T1, human BCMA on cells (endogenous, on …); assay: cell-based or functional assay
[3] = molecular target: T1, human BCMA on cells (endogenous, on …); assay: cell-based or functional assay; remark: listed apart in the source
[4] = molecular target: T2, human BCMA-MFC (extracellular domain of …); assay: SPR, Biacore, mAb captured by anti-hFc, 25 C
Protocol: (§1) The CM5 Biacore sensor surface was derivatized by amine coupling with a monoclonal mouse anti-human Fc antibody (GE, #BR-1008-39) to capture purified anti-BCMA mAbs and anti-BCMA×anti-CD3 bispecific mAbs. All Biacore binding studies were performed in a buffer composed of 0.01M HEPES pH 7.4, 0.15M NaCl, 3 mM EDTA, 0.05% v/v Surfactant P20 (HBS-ET running buffer). […] Antigen samples were then injected over the anti-BCMA and anti-BCMA×anti-CD3 bispecific mAbs captured surfaces at a flow rate of 30 μL/minute. Antibody-reagent association was monitored for 5 minutes while dissociation in HBS-ET running buffer was monitored for 10 minutes. All of the binding kinetics experiments were performed at 25° C. Kinetic association (kₐ) and dissociation (kd) rate constants were determined by fitting the real-time sensorgrams to a 1:1 binding model using Scrubber 2.0c curve fitting software. Binding dissociation equilibrium constants (KD) and dissociative half-lives (t½) were calculated from the kinetic rate constants as: […]

[5] = molecular target: T6, monkey BCMA-MFC (monkey BCMA with C-terminal mFc tag) (monkey); assay: SPR, Biacore, mAb captured by anti-hFc, 25 C
T6 construct: also called mfBCMA.mFc
Protocol: as §1

[6] = molecular target: T3, human BCMA-MMH (extracellular domain of …); assay: SPR, Biacore, mAb captured by anti-hFc, 25 C
Protocol: as §1

[7] = molecular target: T4, mouse BCMA-MFC (BCMA with C-terminal …); assay: SPR, Biacore, mAb captured by anti-hFc, 25 C
Protocol: as §1

[8] = molecular target: T7, monkey BCMA-MMH (monkey BCMA with C-terminal myc-myc-hexahistidine tag) (monkey); assay: SPR, Biacore, mAb captured by anti-hFc, 25 C
T7 construct: The words 'extracellular domain' stand before human BCMA in the sentence and are read as applying to the monkey construct too; also called mfBCMA.mmh
Protocol: as §1

T6 sequence (chain, as listed by the source limits assumed): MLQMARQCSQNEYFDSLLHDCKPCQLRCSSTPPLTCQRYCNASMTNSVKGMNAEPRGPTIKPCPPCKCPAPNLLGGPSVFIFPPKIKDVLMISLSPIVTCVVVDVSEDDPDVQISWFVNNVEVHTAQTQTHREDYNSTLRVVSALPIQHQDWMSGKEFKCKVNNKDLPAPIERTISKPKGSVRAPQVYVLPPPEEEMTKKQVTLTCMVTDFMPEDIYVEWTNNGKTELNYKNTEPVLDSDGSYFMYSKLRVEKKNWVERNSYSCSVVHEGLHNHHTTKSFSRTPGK
T7 sequence (chain, as listed by the source limits assumed): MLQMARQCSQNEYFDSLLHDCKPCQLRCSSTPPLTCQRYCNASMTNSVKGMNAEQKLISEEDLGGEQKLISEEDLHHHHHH
T5 sequence (P07766 23-207 limits assumed, chain 1 of 4): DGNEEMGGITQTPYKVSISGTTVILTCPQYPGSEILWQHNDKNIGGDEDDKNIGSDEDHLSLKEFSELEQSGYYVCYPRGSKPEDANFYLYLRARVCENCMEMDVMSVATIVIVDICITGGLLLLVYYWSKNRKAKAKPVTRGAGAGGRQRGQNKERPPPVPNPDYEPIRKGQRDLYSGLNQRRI
T5 sequence (P04234 22-171 limits assumed, chain 2 of 4): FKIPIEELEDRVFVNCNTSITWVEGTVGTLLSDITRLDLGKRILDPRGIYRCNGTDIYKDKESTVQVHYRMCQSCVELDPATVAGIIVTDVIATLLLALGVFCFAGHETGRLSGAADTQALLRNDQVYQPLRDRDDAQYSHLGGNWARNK
T5 sequence (P20963 22-164 limits assumed, chain 3 of 4): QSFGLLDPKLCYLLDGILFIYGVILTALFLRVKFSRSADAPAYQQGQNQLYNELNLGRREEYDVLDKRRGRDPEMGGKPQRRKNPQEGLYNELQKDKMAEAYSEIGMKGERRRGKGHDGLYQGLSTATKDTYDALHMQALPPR
T5 sequence (P09693 23-182 limits assumed, chain 4 of 4): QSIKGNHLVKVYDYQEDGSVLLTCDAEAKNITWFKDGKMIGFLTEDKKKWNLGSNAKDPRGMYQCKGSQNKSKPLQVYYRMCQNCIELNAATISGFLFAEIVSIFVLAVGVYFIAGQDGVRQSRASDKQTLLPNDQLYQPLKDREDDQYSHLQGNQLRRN

Binder | EC50 [1] [nM] | EC50 of NFAT-luciferase activity, Jurkat/NFATLuc reporter cells with MOLP-8 cells [2] [nM] | EC50 of NFAT-luciferase activity, Jurkat/NFATLuc reporter cells with RPMI-8226 cells [2] [nM] | EC50 of NFAT-luciferase activity, Jurkat/NFATLuc reporter cells with Raji cells [2] [nM] | EC50 of NFAT-luciferase activity, Jurkat/NFATLuc reporter cells with Daudi cells [3] [nM] | EC50 of NFAT-luciferase activity, Jurkat/NFATLuc reporter cells with MM1-S cells [3] [nM] | EC50 of NFAT-luciferase activity, Jurkat/NFATLuc reporter cells with NCI-H929 cells [3] [nM] | EC50 of NFAT-luciferase activity, Jurkat/NFATLuc reporter cells with OPM-2 cells [3] [nM] | 30 nM hBCMA.mFc Bind (RU) [4] [RU] | Kd [4] [nM] | koff [4] [s⁻¹] | kon [4] [M⁻¹ s⁻¹] | t½ [4] [min] | 30 nM mfBCMA.mFc Bind (RU) [5] [RU] | Kd [5] [nM] | koff [5] [s⁻¹] | kon [5] [M⁻¹ s⁻¹] | t½ [5] [min] | 90 nM hBCMA.mmh Bind (RU) [6] [RU] | Kd [6] [nM] | also measured
B1 | 15 | 1.4 | 0.61 | 1.6 | 2.1 | 1.2 | 0.68 | 0.66 | 107 | ≤ 0.0223 | ≤ 1e-05 | 448000 | ≤ 1160 | 108 | 0.167 | 8.8e-05 | 528000 | 131 | 19.9 | 1.06 | koff [6]: 0.000874 s⁻¹; kon [6]: 827000 M⁻¹ s⁻¹; t½ [6]: 13.2 min; 30 nM mfBCMA.mFc Bind (RU) (mouse BCMA-MFC by the table's title) [7]: 2.7 RU; binding result [7]: no binding (tested: 30 nM); 90 nM mfBCMA.mmh Bind (RU) [8]: 14.8 RU; Kd [8]: 49.9 nM; koff [8]: 0.00909 s⁻¹; kon [8]: 182000 M⁻¹ s⁻¹; t½ [8]: 1.3 min
B2 | 558 | 11 | 2.6 | 7.4 | 7.9 | 4.4 | 2.7 | 2.6 | 96.8 | ≤ 0.0223 | ≤ 1e-05 | 449000 | ≤ 1160 | 97 | 0.148 | 7.15e-05 | 482000 | 162 | 17 | 1.38 | koff [6]: 0.00101 s⁻¹; kon [6]: 730000 M⁻¹ s⁻¹; t½ [6]: 11.5 min; 30 nM mfBCMA.mFc Bind (RU) (mouse BCMA-MFC by the table's title) [7]: 2.4 RU; binding result [7]: no binding (tested: 30 nM); 90 nM mfBCMA.mmh Bind (RU) [8]: 12.7 RU; Kd [8]: 38.8 nM; koff [8]: 0.00864 s⁻¹; kon [8]: 223000 M⁻¹ s⁻¹; t½ [8]: 1.3 min
